Measured values reported in paper PMC4881898, “CD14 Is a Co-Receptor for TLR4 in the S100A9-Induced Pro-Inflammatory Response in Monocytes” (PLoS ONE, 2016).

Target: T1, recombinant human CD14 (human, UniProt P08571 20-345)
T1 construct: CD14, human, recombinant soluble protein from CHO cells; Check this against the vendor data sheet; source: bought: R&D Systems (cat no 383-CD-050/CF), derived from CHO cells
T1 sequence (looked up): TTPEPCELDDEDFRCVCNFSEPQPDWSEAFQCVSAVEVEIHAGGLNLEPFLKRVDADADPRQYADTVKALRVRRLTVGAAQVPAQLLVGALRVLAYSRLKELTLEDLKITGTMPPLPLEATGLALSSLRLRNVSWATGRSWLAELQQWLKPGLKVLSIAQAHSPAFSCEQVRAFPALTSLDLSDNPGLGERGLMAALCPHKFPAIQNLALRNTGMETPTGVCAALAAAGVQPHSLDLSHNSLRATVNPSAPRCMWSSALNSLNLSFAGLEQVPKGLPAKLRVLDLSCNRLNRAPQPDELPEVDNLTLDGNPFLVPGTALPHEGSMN
Test: SPR; Biacore 3000; S100A8 and S100A9 immobilised in separate flow cells on a CM5 chip by amine coupling, to the same level; CD14 injected at 50 to 800 nM for 2 min at 30 ul/min in HBS-P (10 mM HEPES, 0.15 M NaCl, pH 7.4, 0.005% P20) with 1 mM Ca2+ and 20 uM Zn2+; regeneration with 3 mM EDTA; sensorgrams fit to a 1:1 model
Conditions: both partners purified

Kd: 100 to 200 nM
B1: recombinant human S100A9 (natural protein, UniProt P06702 1-114, looked up)
chain: MTCKMSQLERNIETIINTFHQYSVKLGHPDTLNQGEFKELVRKDLQNFLKKENKNEKVIEHIMEDLDTNADKQLSFEEFIMLMARLTWASHEKMHEGDEGPGHHHKPGLGEGTP
notes: S100A9, human, recombinant; The discussion says the recombinant huS100A9 was produced in E. coli; Amine-coupled to the CM5 chip in the SPR experiment; also called huS100A9; source: recombinant, produced at Active Biotech AB, Lund, Sweden
